Source: patent US20210145976A1 (ARO BIOTHERAPEUTICS, published 2021)
Where two headings read alike, the source gives them in different places.

B1: SEQ ID NO 302 (designed binder)
chain: MLPAPKNLVVSRVTEDSARLSWTAPDAAFDSFDIYYPEYYDRGEAIVLTVPGSERSYDLTGLKPGTEYTVYIDGVKGGGGSGPLSAIFTT
notes: FN3 domain
B2: SEQ ID NO 33 (designed binder)
chain: MLPAPKNLVVSRVTEDSARLSWTAPDAAFDSFTIQYEELTTVGEAIYLRVPGSERSYDLTGLKPGTEYVVWIEGVKGGLRSNPLGAAFTT
notes: FN3 domain
B3: SEQ ID NO 92 (designed binder)
chain: MLPAPKNLVVSRVTEDSARLSWTAPDAAFDSFLIRYWEWYVLGEAIVLTVPGSERSYDLTGLKPGTEYYVEISGVKGGWQSWPLSAIFTT
notes: FN3 domain
B4: SEQ ID NO 238 (designed binder)
chain: MLPAPKNLVVSRVTEDSARLSWTAPDAAFDSFKIFYQEFGGEAIVLTVPGSERSYDLTGLKPGTEYWVDIYGVKGGYTSSPLSAIFTT
notes: FN3 domain
B5: SEQ ID NO 44 (designed binder)
chain: MLPAPKNLVVSRVTEDSARLSWTAPDAAFDSFYIEYYESLPDGEAIVLTVPGSERSYDLTGLKPGTEYAVYIYGVKGGYYSRPLSAIFTT
notes: FN3 domain
B6: SEQ ID NO 134 (designed binder)
chain: MLPAPKNLVVSRVTEDSARLSWTAPDAAFDSFWIDYYERKYVGEAIVLTVPGSERSYDLTGLKPGTEYEVTIYGVKGGWYSDPLSAIFTT
notes: FN3 domain
B7: SEQ ID NO 52 (designed binder)
chain: MLPAPKNLVVSRVTEDSARLSWTAPDAAFDSFKISYQEWWEDGEAIVLTVPGSERSYDLTGLKPGTEYWVNISGVKGGVQSYPLSAIFTT
notes: FN3 domain
B8: SEQ ID NO 59 (designed binder)
chain: MLPAPKNLVVSRVTEDSARLSWTAPDAAFDSFTIWYAEWEDEGEAIVLTVPGSERSYDLTGLKPGTEYRVEIYGVKGGYPSKPLSAIFTT
notes: FN3 domain
B9: SEQ ID NO 49 (designed binder)
chain: MLPAPKNLVVSRVTEDSARLSWTAPDAAFDSFGISYLEWWEDGEAIVLTVPGSERSYDLTGLKPGTEYWVSIAGVKGGKRSYPLSAIFTT
notes: FN3 domain
B10: SEQ ID NO 51 (designed binder)
chain: MLPAPKNLVVSRVTEDSARLSWTAPDAAFDSFFIKYIEWWADGEAIVLTVPGSERSYDLTGLKPGTEYLVEIYGVKGGKWSWPLSAIFTT
notes: FN3 domain
B11: SEQ ID NO 58 (designed binder)
chain: MLPAPKNLVVSRVTEDSARLSWTAPDAAFDSFTIWYAEADGWGEAIVLTVPGSERSYDLTGLKPGTEYFVDIYGVKGGYLSVPLSAIFTT
notes: FN3 domain
B12: SEQ ID NO 50 (designed binder)
chain: MLPAPKNLVVSRVTEDSARLSWTAPDAAFDSFVIEYREGAWYGEAIVLTVPGSERSYDLTGLKPGTEYFVDITGVKGGWWSDPLSAIFTT
notes: FN3 domain
B13: SEQ ID NO 61 (designed binder)
chain: MLPAPKNLVVSRVTEDSARLSWRVESRTFDSFLIQYQESEKVGEAIVLTVPGSERSYDLTGLKPGTEYTVSIYGVVWDTRDNPISNPLSAIFTT
notes: FN3 domain
B14: SEQ ID NO 235 (designed binder)
chain: MLPAPKNLVVSRVTEDSARLSWTAPDAAFDSFSINYREWWSDGEAIYLPVPGSERSYDLTGLKPGTEYAVYIQGVKGGSRSFPLHAWFTT
notes: FN3 domain
B15: SEQ ID NO 36 (designed binder)
chain: MLPAPKNLVVSRVTEDSARLSWTAPDAAFDSFTITYIEWWENGEAIALSVPGSERSYDLTGLKPGTEYQVGIAGVKGGYKSYPLWALFTT
notes: FN3 domain
B16: SEQ ID NO 62 (designed binder)
chain: MLPAPKNLVVSRVTEDSARLSWTAPDAAFDSFPILYLELNHHGEEIVLTVPGSERSYDLTGLKPGTEYWVYIFGVKGGMYSAPLSAIFTTGG
modifications: VC-MMAF conjugate (site not given)
B17: SEQ ID NO 259 (designed binder)
chain: MLPAPKNLVVSRVTEDSARLSWTAPDAAFDSFTIEYFEFVDAGEAIVLTVPGSERSYDLTGLKPGTEYWVEIWGVKGGSWSKPLSAIFTT
notes: FN3 domain
B18: SEQ ID NO 226 (designed binder)
chain: MLPAPKNLVVSRVTEDSARLSWTAPDAAFDSFHIIYEEVLTEGEAIYLRVPGSERSYDLTGLKPGTEYGVTIKGVKGGAYSIPLIATFTT
notes: FN3 domain

How the values were obtained:
[1] = biological target: T1, recombinant biotinylated CD71 extracellular domain (Sino Biologics) with an N-terminal 6His tag (human, UniProt P02786 89-760, biotinylated (sites not given)); test: screening ELISA
T1 construct: extracellular domain; also called hCD71; huCD71
T1 sequence (P02786 other isoform, or with tags, fused parts or gaps): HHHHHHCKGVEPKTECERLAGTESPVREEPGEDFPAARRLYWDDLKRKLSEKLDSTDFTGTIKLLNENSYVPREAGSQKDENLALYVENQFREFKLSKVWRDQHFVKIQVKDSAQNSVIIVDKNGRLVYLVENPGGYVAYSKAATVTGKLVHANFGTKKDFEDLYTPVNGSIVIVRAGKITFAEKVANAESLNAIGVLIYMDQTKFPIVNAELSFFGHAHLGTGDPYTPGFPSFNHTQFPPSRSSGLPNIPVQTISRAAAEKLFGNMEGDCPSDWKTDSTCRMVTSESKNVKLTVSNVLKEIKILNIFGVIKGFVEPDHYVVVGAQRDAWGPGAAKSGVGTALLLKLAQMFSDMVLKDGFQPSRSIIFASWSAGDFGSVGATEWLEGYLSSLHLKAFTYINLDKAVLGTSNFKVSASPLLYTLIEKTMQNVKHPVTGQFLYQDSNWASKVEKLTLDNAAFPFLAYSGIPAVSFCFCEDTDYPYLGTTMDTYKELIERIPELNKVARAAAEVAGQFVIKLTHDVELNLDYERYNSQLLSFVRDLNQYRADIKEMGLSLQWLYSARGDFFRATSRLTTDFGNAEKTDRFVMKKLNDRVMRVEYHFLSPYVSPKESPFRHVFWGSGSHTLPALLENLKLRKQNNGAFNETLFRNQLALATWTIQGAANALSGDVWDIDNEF

[2] = biological target: T1, recombinant biotinylated CD71 …; test: screening ELISA, ratio
CD71 on SK-BR-3 cells [3] = biological target: T2, CD71 on SK-BR-3 cells (human, UniProt P02786 1-760); test: cell-based or functional assay
T2 sequence (P02786 whole entry): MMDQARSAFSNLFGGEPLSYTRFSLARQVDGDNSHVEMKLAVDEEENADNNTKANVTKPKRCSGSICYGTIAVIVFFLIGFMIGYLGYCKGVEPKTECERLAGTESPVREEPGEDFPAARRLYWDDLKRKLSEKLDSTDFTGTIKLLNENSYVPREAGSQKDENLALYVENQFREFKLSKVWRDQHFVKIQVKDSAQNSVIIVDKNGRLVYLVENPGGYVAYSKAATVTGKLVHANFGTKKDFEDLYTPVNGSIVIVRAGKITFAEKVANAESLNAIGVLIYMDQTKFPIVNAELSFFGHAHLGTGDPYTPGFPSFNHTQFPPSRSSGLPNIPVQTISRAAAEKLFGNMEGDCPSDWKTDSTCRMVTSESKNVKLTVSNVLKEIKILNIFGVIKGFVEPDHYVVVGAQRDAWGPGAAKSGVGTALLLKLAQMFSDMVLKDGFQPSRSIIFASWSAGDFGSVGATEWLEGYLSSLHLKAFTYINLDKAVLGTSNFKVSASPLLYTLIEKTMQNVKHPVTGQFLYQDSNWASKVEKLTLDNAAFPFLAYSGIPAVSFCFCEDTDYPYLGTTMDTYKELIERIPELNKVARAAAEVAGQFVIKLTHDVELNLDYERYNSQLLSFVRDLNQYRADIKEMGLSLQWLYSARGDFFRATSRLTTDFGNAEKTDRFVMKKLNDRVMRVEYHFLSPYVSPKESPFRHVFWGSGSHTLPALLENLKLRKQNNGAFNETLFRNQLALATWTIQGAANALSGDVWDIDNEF

[4] = biological target: T1, recombinant biotinylated CD71 …; test: screening ELISA; remark: listed apart in the source
Procedure: (§1) To screen for FN3 domains that specifically bind CD71, streptavidin-coated Maxisorp plates (Nunc catalog 436110) were blocked for 1 hour in Starting Block T20 (Pierce) and then coated with biotinylated CD71 (using same antigen as in panning) or negative controls (an unrelated Fc-fused recombinant protein and human serum albumin) for 1 hour. Plates were rinsed with TBST and diluted lysate was applied to plates for 1 hour. Following additional rinses, wells were treated with HRP-conjugated anti-V5 tag antibody (Abcam, ab1325), for 1 hour and then assayed with POD (Roche, 11582950001).

[5] = biological target: T1, recombinant biotinylated CD71 …; test: screening ELISA, ratio; remark: listed apart in the source
Procedure: as §1

CD71 on SK-BR-3 cells [6] = biological target: T2, CD71 on SK-BR-3 cells; test: cell-based or functional assay; remark: listed apart in the source
CD71 on SK-BR-3 cells [7] = biological target: T2, CD71 on SK-BR-3 cells; test: cell-based or functional assay; remark: listed apart in the source

| Binder | hCD71 [1] | hCD71:HSA [2] | IC50, SKBR-3 viability, MMAF conjugate, first unlabelled column (+/- human transferrin) (CD71 on SK-BR-3 cells [3]) | IC50, SKBR-3 viability, MMAF conjugate, second unlabelled column (+/- human transferrin) (CD71 on SK-BR-3 cells [3]) | hCD71 [4] | huCD71/Fc [5] | IC50, SKBR-3 cell viability, MMAF conjugate (CD71 on SK-BR-3 cells [6]) | IC50, SK-BR3 viability, MMAF conjugate, no competitor (CD71 on SK-BR-3 cells [7]) | IC50, SK-BR3 viability, MMAF conjugate, with 0.6 uM holo-human transferrin (CD71 on SK-BR-3 cells [7]) |
| --- | --- | --- | --- | --- | --- | --- | --- | --- | --- |
| B1 | 2.67e+06 | 126 | 164 nM | 27.8 nM | – | – | – | – | – |
| B2 | – | – | – | – | 518000 | 46.6 | 3.27 nM | 4.4 nM | ~200 nM |
| B3 | 3.85e+06 | 2960 | 5.49 nM | 1.06 nM | – | – | – | – | – |
| B4 | 2.88e+06 | 679 | – | 7.23 nM | – | – | – | – | – |
| B5 | – | – | – | – | 176000 | 44.8 | 2.5 nM | – | – |
| B6 | 3.08e+06 | 1580 | 165 nM | 8.54 nM | – | – | – | – | – |
| B7 | – | – | – | – | 1.01e+07 | 5750 | 6.3 nM | – | – |
| B8 | – | – | – | – | 1.95e+06 | 608 | 4 nM | – | – |
| B9 | – | – | – | – | 1.09e+07 | 948 | 3 nM | – | – |
| B10 | – | – | – | – | 9.71e+06 | 2290 | 4.9 nM | – | – |
| B11 | – | – | – | – | 302000 | 62.9 | 7.7 nM | – | – |
| B12 | – | – | – | – | 1.08e+07 | 4490 | 3.1 nM | – | – |
| B13 | – | – | – | – | 4.9e+06 | 461 | 1.93 nM | – | – |
| B14 | 3.92e+06 | 2910 | 1.75 nM | 10.6 nM | – | – | – | – | – |
| B15 | – | – | – | – | 3.3e+06 | 535 | 7.1 nM | – | – |
| B16 | – | – | – | – | – | – | – | > 0.005 nM | 0.6 nM |
| B17 | 2.44e+06 | 1160 | 27.5 nM | – | – | – | – | – | – |
| B18 | 4.33e+06 | 1520 | – | 8.32 nM | – | – | – | – | – |
